Laboratory results: patent publication US20240358813A1
Where two headings read alike, the source gives them in different places.

Assays:
[1] = biological target: gp42 wild-type (1-223) (Epstein-Barr virus) (UniProt P03205); assay: flow cytometry, stable CHO cells kept in 10 µg/ml puromycin, mAb at 1:200, goat anti-mouse IgG Alexa Fluor 488
[2] = biological target: gp350-F: EBV gp350 (1-864) ectodomain fused to the Newcastle disease virus fusion protein (NDV-F) tr (Epstein-Barr virus; Newcastle disease virus) (UniProt P03200)
Chain of UniProt P03200 (P03200 1-864): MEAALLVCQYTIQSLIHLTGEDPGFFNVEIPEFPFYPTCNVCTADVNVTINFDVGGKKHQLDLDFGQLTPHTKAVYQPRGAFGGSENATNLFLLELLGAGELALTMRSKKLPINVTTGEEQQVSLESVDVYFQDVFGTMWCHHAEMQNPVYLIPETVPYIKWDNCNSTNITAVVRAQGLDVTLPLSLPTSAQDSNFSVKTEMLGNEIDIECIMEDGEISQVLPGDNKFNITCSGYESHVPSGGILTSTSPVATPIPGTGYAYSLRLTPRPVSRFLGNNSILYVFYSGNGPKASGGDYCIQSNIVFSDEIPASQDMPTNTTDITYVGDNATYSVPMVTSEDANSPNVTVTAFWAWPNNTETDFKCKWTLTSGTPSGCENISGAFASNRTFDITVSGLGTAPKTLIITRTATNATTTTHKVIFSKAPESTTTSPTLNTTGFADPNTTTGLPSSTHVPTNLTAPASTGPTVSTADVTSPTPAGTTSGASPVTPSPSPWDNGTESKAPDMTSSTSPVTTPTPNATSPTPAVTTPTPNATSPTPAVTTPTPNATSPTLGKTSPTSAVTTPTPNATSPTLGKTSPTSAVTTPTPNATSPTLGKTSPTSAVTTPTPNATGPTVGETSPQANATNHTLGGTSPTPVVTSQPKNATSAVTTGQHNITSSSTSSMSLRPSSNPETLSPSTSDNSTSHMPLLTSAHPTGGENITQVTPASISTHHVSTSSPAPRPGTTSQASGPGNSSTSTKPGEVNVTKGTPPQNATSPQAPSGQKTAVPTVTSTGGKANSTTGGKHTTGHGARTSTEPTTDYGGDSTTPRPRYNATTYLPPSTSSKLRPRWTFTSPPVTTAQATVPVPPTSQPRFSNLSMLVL

[3] = biological target: gp350-F: EBV gp350 (1-864) ectodomain fused to the Newcastle disease virus fusion protein (NDV-F) tr (Epstein-Barr virus; Newcastle disease virus) (UniProt P03200); remark: listed apart in the source
[4] = biological target: gp350-F: EBV gp350 (1-864) ectodomain fused to the Newcastle disease virus fusion protein (NDV-F) tr (Epstein-Barr virus; Newcastle disease virus) (UniProt P03200); assay: flow cytometry, […], mAb at 1:200, […]

Chain of UniProt P03205 (P03205 whole entry, the tested form may be a part): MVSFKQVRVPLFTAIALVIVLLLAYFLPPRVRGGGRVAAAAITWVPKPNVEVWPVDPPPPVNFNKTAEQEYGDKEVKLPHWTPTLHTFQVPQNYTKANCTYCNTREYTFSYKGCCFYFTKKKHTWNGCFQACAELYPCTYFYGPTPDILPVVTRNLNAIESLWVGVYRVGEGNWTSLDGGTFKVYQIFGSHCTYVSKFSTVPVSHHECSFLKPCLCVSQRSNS

anti-gp42 mAb (F-2-1) (antibody)
percent positive cells [1]: > 90%

anti-gp350 mAb 2L10 (antibody)
percent positive cells [2]: > 90%

anti-gp350 monoclonal antibody (mAb) 72A1
percent positive cells [3]: 95% | percent positive cells [4]: > 90%
